From a protein production outcome set (Wang et al. 2014)

Test: label from the status in PepcDB records
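Further: failed if final PepcDB status was selected cloned or expressed and not failed if soluble or beyond.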

| Sequence | protein production |
| --- | --- |
| MAYGTYRGLFAPEVAGPLAKLLVLLLVGYGLYQNRHLKSLYLVLLGLLLNALVIFANGGHMPVSPTALHRAGIGEFADLLRDKGDAVHALLDEKTRLPFLGDVIPLPPLRKVVSPGDLFILLGIVGVVVEGALKGGVRLRRRALALRLLLYLAFVLALLALRG | failed |
| MNSCILQATVVEAPQLRYTQDNQTPVAEMVVQFPGLSSKDAPARLKVVGWGAVAQELQDRCRLNDEVVLEGRLRINSLLKPDGNREKQTELTVTRVHHLTLDSATGILAQEESEVSYGRSAAASAPVKASPVVTPTAAPDVDYDDIPF | failed |
| MGSLRLLADIQGEDLESLYGYAKQLFDGGEIAAARNVYQLLSTLDHWNFDYLLALGLCHQRLGAHNEAVVCFGRAGLIKVDDPRAAFYAGISYRLDGNAEYASKAFKAAINWCGEQIDYQAIKASAVDMLALQQEEVPLEHHHHHH | failed |
| MKELPRGDLLSPKTEEKFKLTNKAKIFFRPYMDPPEMPSSEYPLWLCTGRVLEHWHSGTMTMRVPELYRAVPEALCYMHPEDAKKLGVKQNEAVWVESRRGKVKARLEHHHHHH | not failed |
| MRSLTHIAKIEPPPVRRVTYVKHYSIQPANLEFNAEGTPVSRDFDDVYFSNDNGLEETRYVFLGGNQLEVRFPEHPHPLFVVAESGFGTGLNFLTLWQAFDQFREAHPQAQLQRLHFISFEKFPLTRADLALAHQHWPELAPWAEQLQAQWPMPLPGCHRLLLDEGRVTLDLWFGDINELTSQLDDSLNQKVDAWFLDGFAPAKNPDMWTQNLFNAMARLARPGGTLATFTSAGFVRRGLQDAGFTMQKRKGFGRKREMLCGVMEQTLPLPCSAPWFNRTGSSKREAAIIGGGIASALLSLALLRRGWQVTLYCADEAPALGASGNRQGALYPLLSKHDEALNRFFSNAFTFARRFYDQLPVKFDHDWCGVTQLGWDEKSQHKIAQMLSMDLPAELAVAVEANAVEQITGVATNCSGITYPQGGWLCPAELTRNVLELAQQQGLQIYYQYQLQNLSRKDDCWLLNFAGDQQATHSVVVLANGHQISRFSQTSTLPVYSVAGQVSHIPTTPELAELKQVLCYDGYLTPQNPANQHHCIGASYHRGSEDTAYSEDDQQQNRQRLIDCFPQAQWAKEVDVSDKEARCGVRCATRDHLPMVGNVPDYEATLVEYASLAEQKDEAVSAPVFDDLFMFAALGSRGLCSAPLCAEILAAQMSDEPIPMDASTLAALNPNRLWVRKLLKGKAVKAG | failed |
| NFNPPTRRNWESNYFGMPLQDLVTAEKPIPLFVEKCVEFIEDTGLCTERLYRVSGNKTDQENIQKQFVQDHNINLVSMEVTVNAVAGALKAFFADLPDPLIPYSLHPELLEAAKIPDKTERLHALKEIVKKFHPVNYDVFRYVITHLNRVSQQHKINLMTADNLSICFGQPLMRPDLKSMEFLSTTKIHQSVVETFIQQCQFFFYNGEIVETTNIVAPPPPSNPG | failed |
| MCLAIPSVVIDIFEEDGEKYALAEYKGVKQKAKLALIEGVEIGDYVLIHTGYALEKMSEDEAKLSLDAWEELFDVLDEM | failed |
| MNKKRIVFGLLSFFLPIFLVFGGLLFFLLLLTSTSDTSKNDCIQPSINNPTDATDTPKSIEQFVKSHKDAYLLSWKAGGFLPSASISQTMVENGFNFTNPSGTSFWQAHNMGGVKTSKKEDFPVTLATFGQDSVDISGTKPGSNVGDGTGGAYTWFKDYNAGIVGKAEFMAHQTLYTGAINNTDGLSTLSAIYSGGWATDPTYLMKLQATYNSLGKQFQWLDQEAIQKYGNAPFKKSELVLNIPGKSPITNEKYGKNSDCVVTSDTSDQVTGQNTAPSLEVPSAYKGKLTLPPIDSNDYAGNNYPFGQCTWYAYNRMAQIGKPIEWFSGDGGNGAGWANSARAKGYTVVKVKPSVGWAASMQGGIGGSAPPYGHVAVVEYVNSDGSILVSEANVINQGSGTRSWRVLDRATVEQIDFIQGKGALEHHHHHH | failed |
| MDAMKYHDLRDFLTLLEQQGELKRITLPVDPHLEITEIADRTLRAGGPALLFENPKGYAMPVLCNLFGTPKRVAMGMGQDDVSALREVGKLLAFLKEPEPPKGFRDLFDKLPQFKQVLNMPTKRLRGAPCQQKIASGDDVDLTRLPVMTCWPDDAAPLITWGLTVTRGPHKERQNLGIYRQQLIGKNKLIMRWLSHRGGALDFQEWLAARPGERFPVSVALGADPATILGAVTPVPDTLSEYAFAGLLRGTKTEVVKCLSNDLEVPASAEIILEGYIEPGEMAPEGPYGDHTGYYNEVDSFPVFTVTHITQREDAIYHSTYTGRPPDEPAVLGVALNEVFVPILQKQFPEIVDFYLPPEGCSYRLAVVTMKKQYAGHAKRVMMGVWSFLRQFMYTKFVIVCDDDVNARDWNDVIWAITTRMDPARDTVLVENTPIDYLDFASPVSGLGSKMGLDATNKWPGETQREWGRPIVKDPEVTARIDAIWDELAIFKLEHHHHHH | not failed |
| MKISQLLSLDTIKLNLAASNKNEVIDQLVDVLWDAGKLTDKNLYKEEILKRESLSSTGIGERIAIPHAKTKAVKNASLALGIYKYGVDYDSLDGEPVNIVFMIAAPAGANDEHLETLSRLSVLLMNPDFKNGLLNAKTPEEVISLLDKFEENEESDETQASNEAENNSNKKYILAVTACPTGIAHTYMAADSLNKTAKEMDVHIKVETNGSTGVKNRLTQEDIDKADGIIVAADKQVEMARFNGKKVVIVPVVQAMKRPQELINEALSGSAPVYSHSGDSSNQSSGKTERRGFYKHLMNGVSNMLPFVVGGGILIAISFMFGIHSAEINDPTFNPIAKLLKDIGGGNAFFLMIPVLAGFIGSSIADRPGFAPAMVGGLIAANSGSGFLGGLIAGFLGGYVVVLLKKIFSKLPQSLEGIKPVLLYPLFGILITGALMYLVIVGPVTALNNNIAIWLQNMGTGNLVLLGIVLGGMMAIDMGGPINKAAFTFGIAMIASGNYYPHAAIMAGGMVPPLATALATTFFKNKFTKDERDAGTTNYIMGLTFITEGAIPFAAADPFRVIPACVIGSAIAGGLSMVFKIGLPAPHGGIFVVPVVEGNPLLYLLSILVGSIVAALIIGFLKKPVNEINK | failed |
| SSKELLMKLRRKTGYSFVNCKKALETCGGDLKQAEIWLHKEAQKEGWSKAA | not failed |
| MKYCTLDDLILSFGQDEIYRLIATDQEAEKALDDAQAEIDMYLSDRYALPVKSVPKSLNRIACDIAHYYLYNSVDEDSTVYLRYKHRIKQLSDVAAGKLSLGLYDKSDDATTDNQVVFIKSSKKVFAR | not failed |
| MNLLTNEKTIKVFSSLIYTSLIISLIAMIFDVKLASKIFNTIGIISAILLFINKREIKKESMLIPLSILFLCVTNLIWEQLYKNSGSEIIGLYHSYHNVMKILFLGSSLTLFVMTFSSKHPLTKNALNIIYTIPFFLVLYYLLSEPEVRFSISDKIATSSAYMISFIGILTSQVILLKTEKRNLFFYFINHIIFFTIIVLSGTRAAILAYPLLSAIVLIPAILKDKKINLKLIILYIMVNIVCLVACQKTIMSRSENLISDINMYNQSNSESSVGARIAMYRSGLTSFIHAPMGQSAESRQLDIQKQAEQNPSLSGAALLTGIHLHNELIEAISLKGIIGGMALLLLYASLFYFSSFILKDYALTSLTLSLVIYGLSDVIFYGKNATTVWIVTYCLSILLVKRNRGVQ | failed |
| MSPIVSVPDITAPVENVPAILPKVVPGELIVNKPTGGDSDELFQYLVDILASPVYDVAIESPLELAEKLSDRLGVNFYIKREDKQRVFSFKLRGAYNMMSNLSREELDKGVITASAGNHAQGVALAGQRLNCVAKIVMPTTTPQIKIDAVRALGGDVVLYGKTFDEAQTHALELSEKDGLKYIPPFDDPGVIKGQGTIGTEINRQLKDIHAVFIPVGGGGLIAGVATFFKQIAPNTKIIGVEPYGAASMTLSLHEGHRVKLSNVDTFADGVAVALVGEYTFAKCQELIDGMVLVANDGISAAIKDVYDEGRNILETSGAVAIAGAAAYCEFYKIKNENIVAIASGANMDFSKLHKVTELAGLGSGKEALLATFMVEQQGSFKTFVGLVGSLNFTELTYRFTSERKNALILYRVNVDKESDLEKMIEDMKSSNMTTLNLSHNELVVDHLKHLVGGSANISDEIFGEFIVPEKAETLKTFLDAFSPRNITLCRYRNQGDINASLLMGFQVPQAEMDEFKNQADKLGYPYELDNYNEAFNLVVSE | not failed |
| SAKNAYTKLGTDDNAQLLDIRATADFRQVGSPNIKGLGKKAVSTVYNGEDKPGFLKKLSLKFKDPENTTLYILDKFDGNSELVAELVALNGFKSAYAIKDGAEGPRGWLNSSLPWIEPKKT | not failed |
| MNNLFAAPTPEEHAALLQEIGPLPLSGQAWPDWVRILAWIVLAVIGVQIVTTAIGLPPGQVNPVLAGTIILCFLGLALVSWHMQISVTRIDESGLRQTWITRREVAWQDIQFAKFVPLLFSKRLVVFTRHGRPIVFQGGTRDLQVAFAKISLLYRRKR | failed |
| MEDGVTPPLLITEKDTTMIRVKEEVKKQLWLSAPLIGVSLLQYSLQVISVMFVGHLGSLPLSAASIATSFASVTGFTFLLGTASALETLCGQAYGAKLYGKLGIQMQRAMFVLLILSVPLSIIWANTEQILVLVHQDKSIASVAGSYAKYMIPSLFAYGLLQCINRFLQAQNNVFPVFVCSGITTCLHLLLCWLFVLKTGLGYRGAALAISVSYWFNVILLSCYVKFSPSCSHSWTGFSKEAFQELYDFSKIAFPSAVMVCLELWSFELLVLASGLLPNPVLETSVLSICLNTSLTIWQISVGLGGAASIRVSNELGAGNPQVAKLAVYVIVGIAVAEGIVVVTVLLSIRKILGHAFSSDPKIIAYAASMIPIVACGNFLDGLQCVLSGVARGCGWQKIGACVNLGSYYLVGVPLGLLLGFHFHIGGRGLWLGIVTALSVQVLCLSLVTIFTNWDKEAKKATNRVGSSDDKDGDVQ | failed |
| MERQQQQQQQLRNLRDFLLVYNRMTELCFQRCVPSLHHRALDAEEEACLHSCAGKLIHSNHRLMAAYVQLMPALVQRRIADYEAASAVPSVAAEQPGVSPSGS | not failed |
| MSERIVPSGDVELWSDDFGDPADPALLLVMGGNLSALGWPDEFARRLADGGLHVIRYDHRDTGRSTTRDFAAHPYGFGELAADAVAVLDGWGVDRAHVVGLSMGATITQVIALDHHDRLSSLTMLLGGGLDIDFDANIERVMRGEPTLDGLPGPQQPFLDALALMNQPAEGRAAEVAKRVSKWRILSGTGVPFDDAEYARWEERAIDHAGGVLAEPYAHYSLTLPPPSRAAELREVTVPTLVIQAEHDPIAPAPHGKHLAGLIPTARLAEIPGMGHALPSSVHGPLAEVILAHTRSAA | not failed |
| MKNSENDYIQSLFQILPGLLTAFLVACLSKFLAIWLPSLGAATIAILLGIFLGNTFVRGANLNRGTKVAESKLLEFSVVLLGTTVTFQTIAQIGLQGVAFILIQMSLTIIFAYLIGKKLAFSDNMSLLMAGGNAVCGSSAIASIAPAIQADEEEKGQIITLVNLLGTVLMLTLPILSGILYGTNLLARSALIGGTLQSVGQVVASANMVNENAVQLAMLFKIMRIVLLVAVVYLFGRFKQSKTAESEAELVEVTKKSSALPWYVVGFFIACVFNSLIHFPVVISETAHFFSSWFEITALAAIGLRLDFKKFFQEGKRFLIYGLSVGTVQVVLAILLLALLQF | failed |
| MKLVWSPETASKAYIDTVKSCENLETPDAAELIAAMAAGWNVKLIVETWSEGDAIASSIGLNVASKHANAKHICIVQNSRSESAYLQAIQESSSPLNFPETIVAEEPGKAMKKLQGVDFLVVDWRNKEFAAAALKNAAFGNRGAVVVCRNGYSSLRRVLRDRKVVRTVTLPVTGGIEIAHVAARNSGKSGNNKRRWITHVDQRSGEEHVFSI | failed |
